Non-standard residues stand in square brackets, D forms with d. Primed or numbered codes have the meaning given here. No end group written: not given here. *: point of attachment. Phe(4-F) = N[C@@H](Cc1ccc(F)cc1)C(=O)O; tBuAla = CC(C)(C)C[C@H](N)C(=O)O; 4Pal = N[C@@H](Cc1ccncc1)C(=O)O; dHyp = O=C(O)[C@H]1C[C@H](O)CN1; Cha = N[C@@H](CC1CCCCC1)C(=O)O; Gly(cPr) = N[C@H](C(=O)O)C1CC1; Isobutyryl = CC(C)C(=O)*; PEG2′ = not defined here; Abu = CC[C@H](N)C(=O)O; Aib = CC(C)(N)C(=O)O; Inp = O=C(O)C1CCNCC1; Ahx = NCCCCCC(=O)O
Experiments:
human Y2 receptor [1] = target: T1, human Y2 receptor (Homo sapiens, UniProt P49146); assay: Human Y2 Receptor G Protein Binding Assay (GBA), [35S]GTPγS; format: biochemical; settings: EC50 of test compound/EC50 of PYY(3-36) (PYY3-36 taken as 1), hY2R/CHO membrane fraction
T1 construct: expressed in transfected cells; membrane fraction
T1 sequence (P49146 1-381): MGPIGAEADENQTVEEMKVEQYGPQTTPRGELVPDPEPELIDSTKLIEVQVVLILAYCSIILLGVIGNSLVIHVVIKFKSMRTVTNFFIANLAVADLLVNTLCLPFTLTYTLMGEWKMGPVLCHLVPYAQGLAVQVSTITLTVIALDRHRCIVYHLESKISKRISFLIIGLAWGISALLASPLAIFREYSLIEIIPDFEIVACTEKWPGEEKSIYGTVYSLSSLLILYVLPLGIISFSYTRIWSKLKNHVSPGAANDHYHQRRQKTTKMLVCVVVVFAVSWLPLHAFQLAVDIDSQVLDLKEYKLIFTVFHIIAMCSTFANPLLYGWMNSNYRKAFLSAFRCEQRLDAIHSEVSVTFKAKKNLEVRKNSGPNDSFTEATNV
Procedure, shortened: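 Agonism measured as [35S]GTPγS binding, read by GF/C filtration and scintillation counting after 120 min at room temperature, using human Y2 membranes at 1 μg protein/mL in pH 7.4 Tris/MgCl2/NaCl/GDP buffer. Compound serially diluted 100 μM–1 nM; EC50 normalized to PYY(3-36) (ratio = compound/PYY).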

human Y2 receptor [2] = target: T1, human Y2 receptor; assay: Receptor Binding Assay (RBA) for Human Y2, [125I]-PYY displacement on hY2R/CHO membrane fraction; settings: IC50 of test compound/IC50 of PYY(3-36) (PYY(3-36) taken as 1)
Procedure, shortened: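 hY2R stably expressed in CHO/dhfr− cells; membrane fraction prepared from cells disrupted in 10 mM NaHCO3, 5 mM EDTA buffer with protease inhibitors. Binding read as displacement of [125I]-PYY.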

Row | Substance | GBA EC50 Ratio (human Y2 receptor [1]) | RBA IC50 Ratio (human Y2 receptor [2])
1 | Isobutanoyl-[Abu26, Cha27,36, Gly(cPr)28, Aib31]-PYY(25-36) (Isobutyryl-R[Abu][Cha][Gly(cPr)]NL[Aib]TRQR[Cha]-NH2; SMILES CC[C@H](NC(=O)[C@H](CCCNC(=N)N)NC(=O)C(C)C)C(=O)N[C@@H](CC1CCCCC1)C(=O)N[C@H](C(=O)N[C@@H](CC(N)=O)C(=O)N[C@@H](CC(C)C)C(=O)NC(C)(C)C(=O)N[C@H](C(=O)N[C@@H](CCCNC(=N)N)C(=O)N[C@@H](CCC(N)=O)C(=O)N[C@@H](CCCNC(=N)N)C(=O)N[C@@H](CC1CCCCC1)C(N)=O)[C@@H](C)O)C1CC1) [compound No. 93] | 41 | 52
2 | Isobutanoyl-[Abu26, Cha27,36, Phe(4F)28, Aib31]-PYY(25-36) (Isobutyryl-R[Abu][Cha][Phe(4-F)]NL[Aib]TRQR[Cha]-NH2; SMILES CC[C@H](NC(=O)[C@H](CCCNC(=N)N)NC(=O)C(C)C)C(=O)N[C@@H](CC1CCCCC1)C(=O)N[C@@H](Cc1ccc(F)cc1)C(=O)N[C@@H](CC(N)=O)C(=O)N[C@@H](CC(C)C)C(=O)NC(C)(C)C(=O)N[C@H](C(=O)N[C@@H](CCCNC(=N)N)C(=O)N[C@@H](CCC(N)=O)C(=O)N[C@@H](CCCNC(=N)N)C(=O)N[C@@H](CC1CCCCC1)C(N)=O)[C@@H](C)O) [compound No. 79] | 20 | 23
3 | Isobutanoyl-[Abu26, Cha27,36, Pya(4)28, Aib31]-PYY(25-36) (Isobutyryl-R[Abu][Cha][4Pal]NL[Aib]TRQR[Cha]-NH2; SMILES CC[C@H](NC(=O)[C@H](CCCNC(=N)N)NC(=O)C(C)C)C(=O)N[C@@H](CC1CCCCC1)C(=O)N[C@@H](Cc1ccncc1)C(=O)N[C@@H](CC(N)=O)C(=O)N[C@@H](CC(C)C)C(=O)NC(C)(C)C(=O)N[C@H](C(=O)N[C@@H](CCCNC(=N)N)C(=O)N[C@@H](CCC(N)=O)C(=O)N[C@@H](CCCNC(=N)N)C(=O)N[C@@H](CC1CCCCC1)C(N)=O)[C@@H](C)O) [compound No. 83] | 22 | 26
4 | Isobutanoyl-[Abu26, Cha27,36, Ser28, Aib31]-PYY(25-36) (Isobutyryl-R[Abu][Cha]SNL[Aib]TRQR[Cha]-NH2; SMILES CC[C@H](NC(=O)[C@H](CCCNC(=N)N)NC(=O)C(C)C)C(=O)N[C@@H](CC1CCCCC1)C(=O)N[C@@H](CO)C(=O)N[C@@H](CC(N)=O)C(=O)N[C@@H](CC(C)C)C(=O)NC(C)(C)C(=O)N[C@H](C(=O)N[C@@H](CCCNC(=N)N)C(=O)N[C@@H](CCC(N)=O)C(=O)N[C@@H](CCCNC(=N)N)C(=O)N[C@@H](CC1CCCCC1)C(N)=O)[C@@H](C)O) [compound No. 102] | 35 | 49
5 | Isobutanoyl-[Glu23, D-Pro24, Pya(4)26, Cha27,36, Leu(Me)28, Lys30, Aib31]-PYY(23-36) (Isobutyryl-E[dP]R[4Pal][Cha][tBuAla]NK[Aib]TRQR[Cha]-NH2; SMILES CC(C)C(=O)N[C@@H](CCC(=O)O)C(=O)N1CCC[C@@H]1C(=O)N[C@@H](CCCNC(=N)N)C(=O)N[C@@H](Cc1ccncc1)C(=O)N[C@@H](CC1CCCCC1)C(=O)N[C@@H](CC(C)(C)C)C(=O)N[C@@H](CC(N)=O)C(=O)N[C@@H](CCCCN)C(=O)NC(C)(C)C(=O)N[C@H](C(=O)N[C@@H](CCCNC(=N)N)C(=O)N[C@@H](CCC(N)=O)C(=O)N[C@@H](CCCNC(=N)N)C(=O)N[C@@H](CC1CCCCC1)C(N)=O)[C@@H](C)O) [compound No. 170] | 0.88 | 0.43
6 | N-4-Pyridiniyl-[Pic(4)23, D-Pro24, Cha27,28,36, Aib31]-PYY(23-36) ([Inp][dP]RH[Cha][Cha]NL[Aib]TRQR[Cha]-NH2; not fully specified (N-terminus); printed as N-4-Pyridiniyl-[Pic(4)23, D-Pro24, Cha27,28,36, Aib31]-PYY(23-36)) [compound No. 125] | 3.4 | 4
7 | [Acp23, D-Pro24, Pya(4)26, Cha27,36, Aib28,31, Lys30]-PYY(23-36) (Ac-[Ahx][dP]R[4Pal][Cha][Aib]NK[Aib]TRQR[Cha]-NH2) [compound No. 304] | 1.1 | 0.32

Continued, values first:

Row | GBA EC50 Ratio (human Y2 receptor [1]) | RBA IC50 Ratio (human Y2 receptor [2]) | Substance
8 | 30 | 45 | Isobutanoyl-[Abu26, Cha27,36, Gln28, Aib31]-PYY(25-36) (Isobutyryl-R[Abu][Cha]QNL[Aib]TRQR[Cha]-NH2; SMILES CC[C@H](NC(=O)[C@H](CCCNC(=N)N)NC(=O)C(C)C)C(=O)N[C@@H](CC1CCCCC1)C(=O)N[C@@H](CCC(N)=O)C(=O)N[C@@H](CC(N)=O)C(=O)N[C@@H](CC(C)C)C(=O)NC(C)(C)C(=O)N[C@H](C(=O)N[C@@H](CCCNC(=N)N)C(=O)N[C@@H](CCC(N)=O)C(=O)N[C@@H](CCCNC(=N)N)C(=O)N[C@@H](CC1CCCCC1)C(N)=O)[C@@H](C)O) [compound No. 100]
9 | 13 | 19 | Isobutanoyl-[Abu26, Cha27,36, His28, Aib31]-PYY(25-36) (Isobutyryl-R[Abu][Cha]HNL[Aib]TRQR[Cha]-NH2; SMILES CC[C@H](NC(=O)[C@H](CCCNC(=N)N)NC(=O)C(C)C)C(=O)N[C@@H](CC1CCCCC1)C(=O)N[C@@H](Cc1c[nH]cn1)C(=O)N[C@@H](CC(N)=O)C(=O)N[C@@H](CC(C)C)C(=O)NC(C)(C)C(=O)N[C@H](C(=O)N[C@@H](CCCNC(=N)N)C(=O)N[C@@H](CCC(N)=O)C(=O)N[C@@H](CCCNC(=N)N)C(=O)N[C@@H](CC1CCCCC1)C(N)=O)[C@@H](C)O) [compound No. 101]
10 | 49 | 70 | Isobutanoyl-[Abu26, Gly27, Cha28,36, Aib31]-PYY(25-36) (Isobutyryl-R[Abu]G[Cha]NL[Aib]TRQR[Cha]-NH2; SMILES CC[C@H](NC(=O)[C@H](CCCNC(=N)N)NC(=O)C(C)C)C(=O)NCC(=O)N[C@@H](CC1CCCCC1)C(=O)N[C@@H](CC(N)=O)C(=O)N[C@@H](CC(C)C)C(=O)NC(C)(C)C(=O)N[C@H](C(=O)N[C@@H](CCCNC(=N)N)C(=O)N[C@@H](CCC(N)=O)C(=O)N[C@@H](CCCNC(=N)N)C(=O)N[C@@H](CC1CCCCC1)C(N)=O)[C@@H](C)O) [compound No. 95]
11 | 3.1 | 2.6 | Isobutanoyl-[Asp23, D-Hyp24, Cha27,28,36, Aib31]-PYY(23-36) (Isobutyryl-D[dHyp]RH[Cha][Cha]NL[Aib]TRQR[Cha]-NH2; SMILES CC(C)C[C@H](NC(=O)[C@H](CC(N)=O)NC(=O)[C@H](CC1CCCCC1)NC(=O)[C@H](CC1CCCCC1)NC(=O)[C@H](Cc1c[nH]cn1)NC(=O)[C@H](CCCNC(=N)N)NC(=O)[C@H]1C[C@H](O)CN1C(=O)[C@H](CC(=O)O)NC(=O)C(C)C)C(=O)NC(C)(C)C(=O)N[C@H](C(=O)N[C@@H](CCCNC(=N)N)C(=O)N[C@@H](CCC(N)=O)C(=O)N[C@@H](CCCNC(=N)N)C(=O)N[C@@H](CC1CCCCC1)C(N)=O)[C@@H](C)O) [compound No. 127]
12 | 0.89 | 0.79 | Isobutanoyl-[D-Pro24, Pya(4)26, Cha27,36, Aib28,31, Lys30]-PYY(23-36) (Isobutyryl-S[dP]R[4Pal][Cha][Aib]NK[Aib]TRQR[Cha]-NH2; SMILES CC(C)C(=O)N[C@@H](CO)C(=O)N1CCC[C@@H]1C(=O)N[C@@H](CCCNC(=N)N)C(=O)N[C@@H](Cc1ccncc1)C(=O)N[C@@H](CC1CCCCC1)C(=O)NC(C)(C)C(=O)N[C@@H](CC(N)=O)C(=O)N[C@@H](CCCCN)C(=O)NC(C)(C)C(=O)N[C@H](C(=O)N[C@@H](CCCNC(=N)N)C(=O)N[C@@H](CCC(N)=O)C(=O)N[C@@H](CCCNC(=N)N)C(=O)N[C@@H](CC1CCCCC1)C(N)=O)[C@@H](C)O) [compound No. 212]
13 | 2.0 | 1.9 | Isobutanoyl-[Glu23, D-Pro24, Pya(4)26, Cha27,36, Aib28,31, Lys30]-PYY(23-36) (Isobutyryl-E[dP]R[4Pal][Cha][Aib]NK[Aib]TRQR[Cha]-NH2; SMILES CC(C)C(=O)N[C@@H](CCC(=O)O)C(=O)N1CCC[C@@H]1C(=O)N[C@@H](CCCNC(=N)N)C(=O)N[C@@H](Cc1ccncc1)C(=O)N[C@@H](CC1CCCCC1)C(=O)NC(C)(C)C(=O)N[C@@H](CC(N)=O)C(=O)N[C@@H](CCCCN)C(=O)NC(C)(C)C(=O)N[C@H](C(=O)N[C@@H](CCCNC(=N)N)C(=O)N[C@@H](CCC(N)=O)C(=O)N[C@@H](CCCNC(=N)N)C(=O)N[C@@H](CC1CCCCC1)C(N)=O)[C@@H](C)O) [compound No. 214]
14 | 2.4 | 3.3 | Piperidinocarbonyl-[Glu23, D-Pro24, Pya(4)26, Cha27,36, Aib28,31, Lys30]-PYY(23-36) (piperidinocarbonyl-E[dP]R[4Pal][Cha][Aib]NK[Aib]TRQR[Cha]-NH2) [compound No. 193]
15 | 0.9 | 0.9 | [(PEG2)23, D-Pro24, Cha27,28,36, Aib31]-PYY(23-36) ([PEG2′][dP]RH[Cha][Cha]NL[Aib]TRQR[Cha]-NH2) [compound No. 118]

— patent US9260500B2, “Peptide and use thereof” (Takeda Pharmaceutical Company Limited, priority 2009, dated 2016)
